The values that follow come from US12371817 (TEXAS A AND M UNIVERSITY SYSTEM, dated 2025).

Numbered stars: 1 amine (or outer) side, 2 acyl side, 3 side chain; on linkers, the order of the positions; unused ones are H or OH. Square brackets hold non-standard residues; d marks the D form. Ends that are not written are not given here. * marks the point of attachment. thBuK = N^ε-thiobutyryl-lysine, CCCC(=S)NCCCC[C@H](N[*:1])C(=O)[*:2]; Crotonyl(E) = C/C=C/C(=O)*; Abu = CC[C@H](N)C(=O)O Some results are limits rather than exact numbers.

Test [1] addresses T1, recombinant human sirtuin 2 (His6-SIRT2) (human, UniProt Q8IXJ6 1-389).
T1 chain: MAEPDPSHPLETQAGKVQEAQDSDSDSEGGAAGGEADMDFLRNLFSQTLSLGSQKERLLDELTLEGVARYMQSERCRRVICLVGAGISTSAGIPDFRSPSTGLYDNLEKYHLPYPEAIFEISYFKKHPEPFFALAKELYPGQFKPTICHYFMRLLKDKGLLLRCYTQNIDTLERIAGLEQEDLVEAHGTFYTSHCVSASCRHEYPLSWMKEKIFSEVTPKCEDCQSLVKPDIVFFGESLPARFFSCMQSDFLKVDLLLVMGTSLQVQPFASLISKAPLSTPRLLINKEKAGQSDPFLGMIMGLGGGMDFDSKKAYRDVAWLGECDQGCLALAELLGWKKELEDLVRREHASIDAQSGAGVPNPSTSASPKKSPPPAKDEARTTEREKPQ
As to the kind of experiment: deacetylase inhibition.

The target of test [2] is T2, ENL (UniProt Q03111 1-148, limits assumed).
T2 construct: also called ENL protein
T2 sequence (looked up): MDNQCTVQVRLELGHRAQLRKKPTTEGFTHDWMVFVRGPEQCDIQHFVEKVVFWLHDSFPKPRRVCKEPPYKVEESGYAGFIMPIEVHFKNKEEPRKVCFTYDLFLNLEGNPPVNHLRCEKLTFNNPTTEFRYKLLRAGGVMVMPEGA
The test is described as follows: fluorescence polarization, 5-FAM-conjugated peptide binding to ENL. A general note: Fluorescence polarisation rises when a labelled molecule tumbles more slowly, as on binding a larger partner.

The target in test [3] is T3, human sirtuin 3 (GST-SIRT3) (human, UniProt Q9NTG7 102-399).
T3 sequence (looked up): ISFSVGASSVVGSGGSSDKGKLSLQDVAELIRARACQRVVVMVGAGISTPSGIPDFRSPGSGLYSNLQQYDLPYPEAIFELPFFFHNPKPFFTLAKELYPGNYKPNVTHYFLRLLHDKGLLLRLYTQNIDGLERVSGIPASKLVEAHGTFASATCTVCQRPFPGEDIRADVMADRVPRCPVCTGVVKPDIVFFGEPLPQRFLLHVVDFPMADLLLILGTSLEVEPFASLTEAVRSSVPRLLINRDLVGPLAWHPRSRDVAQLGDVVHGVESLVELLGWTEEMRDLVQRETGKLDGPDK
As to the kind of experiment: cell-based or functional assay.

Test [4] has as its target T4, recombinant human sirtuin 2 (His6-SIRT2) (human, UniProt Q8IXJ6 1-389).
T4 sequence (looked up): T1 chain
The test is described as follows: cell-based or functional assay.

Test [5] addresses T5, human sirtuin 1 (His6-SIRT1) (human, UniProt Q96EB6 1-747).
T5 sequence (looked up): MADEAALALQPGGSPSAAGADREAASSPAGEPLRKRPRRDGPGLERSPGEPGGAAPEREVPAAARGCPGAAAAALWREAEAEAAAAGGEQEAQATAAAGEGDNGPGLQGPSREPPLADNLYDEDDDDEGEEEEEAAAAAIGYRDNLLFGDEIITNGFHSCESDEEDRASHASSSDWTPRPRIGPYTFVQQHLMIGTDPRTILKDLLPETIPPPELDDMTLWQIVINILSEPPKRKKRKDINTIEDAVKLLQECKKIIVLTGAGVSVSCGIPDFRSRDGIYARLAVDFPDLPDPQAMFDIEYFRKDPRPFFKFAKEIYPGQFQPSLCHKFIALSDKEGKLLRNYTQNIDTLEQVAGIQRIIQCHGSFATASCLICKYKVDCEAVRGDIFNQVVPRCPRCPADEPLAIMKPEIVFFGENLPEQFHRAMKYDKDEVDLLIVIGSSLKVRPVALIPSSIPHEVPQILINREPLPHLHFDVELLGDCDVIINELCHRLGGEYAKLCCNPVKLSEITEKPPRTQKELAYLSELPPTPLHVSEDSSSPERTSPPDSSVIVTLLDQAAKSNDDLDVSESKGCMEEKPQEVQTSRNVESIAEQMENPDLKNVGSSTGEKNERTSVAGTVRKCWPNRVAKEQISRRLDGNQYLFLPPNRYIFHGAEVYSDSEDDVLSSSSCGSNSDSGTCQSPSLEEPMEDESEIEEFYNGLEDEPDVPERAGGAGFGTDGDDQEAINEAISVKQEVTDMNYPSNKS
The test is described as follows: cell-based or functional assay.

For orientation: IC50 means the concentration at which inhibition is half-maximal. By Kd is commonly meant the concentration at which binding is half-saturated. Low readings indicate tighter binding, high ones weaker binding.

B1: S2P04 (Abu)-5 (NH2-ZTVXI-NH2, Z is aminobutyric acid) (peptide)
peptide: H-[Abu]TV[thBuK]I-NH2
SMILES: CCCC(=S)NCCCC[C@H](NC(=O)[C@@H](NC(=O)[C@@H](NC(=O)[C@@H](N)CC)[C@@H](C)O)C(C)C)C(=O)N[C@H](C(N)=O)[C@@H](C)CC
B1: the IC50 in test [1] amounted to 119 nM.

B2: 5-FAM-conjugated 7CrKEnl1 (peptide)
peptide: DIWCFK(Crotonyl(E))G
modifications: also: 5-FAM conjugated, site not given here
In test [2], B2 gave a Kd of 94 nM.

B3: 5-FAM-conjugated 7CrKEnl2 (peptide)
peptide: SK(Crotonyl(E))DIWCF
modifications: also: 5-FAM conjugated, site not given here
Regarding B3, the affinity in test [2], expressed as Kd, was 90 nM.

B4: S2P04 (NH2-TCTVXIG-NH2), synthesized with N^ε-thiobutyryl-lysine (thBuK) in place of BuK (peptide)
peptide: H-TCTV[thBuK]IG-NH2
SMILES: CCCC(=S)NCCCC[C@H](NC(=O)[C@@H](NC(=O)[C@@H](NC(=O)[C@H](CS)NC(=O)[C@@H](N)[C@@H](C)O)[C@@H](C)O)C(C)C)C(=O)N[C@H](C(=O)NCC(N)=O)[C@@H](C)CC
B4: the 50% inhibitory concentration (IC50) in test [1] is 92 nM. For the same molecule, in test [3], the “fold by which SIRT2 is inhibited more potently than SIRT3” value worked out at 152 fold and the “fold more potent than TB (sirtuin inhibition)” value was ≥ 33 fold. Also, the “fold more potent than TB (sirtuin inhibition)” value in test [4] is ≥ 33 fold. Also, in test [5], the “fold by which SIRT2 is inhibited more potently than SIRT1” value was 2.7 fold and the “fold more potent than TB (sirtuin inhibition)” value was ≥ 33 fold.

B5: S2P03 (NH2-CTVXTSL-NH2), synthesized with N^ε-thiobutyryl-lysine (thBuK) in place of BuK (peptide)
peptide: H-CTV[thBuK]TSL-NH2
SMILES: CCCC(=S)NCCCC[C@H](NC(=O)[C@@H](NC(=O)[C@@H](NC(=O)[C@@H](N)CS)[C@@H](C)O)C(C)C)C(=O)N[C@H](C(=O)N[C@@H](CO)C(=O)N[C@@H](CC(C)C)C(N)=O)[C@@H](C)O
For B5, the IC50 in test [1] was 68 nM.

B6: Ac-S2P04-5 (Ac-CTVXI-NH2) (peptide)
peptide: Ac-CTV[thBuK]I-NH2
SMILES: CCCC(=S)NCCCC[C@H](NC(=O)[C@@H](NC(=O)[C@@H](NC(=O)[C@H](CS)NC(C)=O)[C@@H](C)O)C(C)C)C(=O)N[C@H](C(N)=O)[C@@H](C)CC
For B6, the IC50 in test [1] turned out to be 191 nM.

B7: S2P07 (NH2-CTFXVPT-NH2), synthesized with N^ε-thiobutyryl-lysine (thBuK) in place of BuK (peptide)
peptide: H-CTF[thBuK]VPT-NH2
SMILES: CCCC(=S)NCCCC[C@H](NC(=O)[C@H](Cc1ccccc1)NC(=O)[C@@H](NC(=O)[C@@H](N)CS)[C@@H](C)O)C(=O)N[C@H](C(=O)N1CCC[C@H]1C(=O)N[C@H](C(N)=O)[C@@H](C)O)C(C)C
Consider B7, for which the IC50 in test [1] was determined as 101 nM.

B8: S2P04-5, truncated version of S2P04 containing only the five residues of the consensus motif (peptide)
peptide: CTV[thBuK]I-NH2
modifications: N-terminus assumed
SMILES: CCCC(=S)NCCCC[C@H](NC(=O)[C@@H](NC(=O)[C@@H](NC(=O)[C@@H](N)CS)[C@@H](C)O)C(C)C)C(=O)N[C@H](C(N)=O)[C@@H](C)CC
For the molecule B8, the “IC50, inhibition of SIRT2 (fluorogenic sirtuin substrate assay)” value in test [4] turned out to be 136 nM.
